To fix the notation:
B1: Parvalbumin alpha, P02625 (parent)
chain: MSMTDLLSAEDIKKAIGAFTAADSFDHKKFFQMVGLKKKSADDVKKVFHILDKDKSGFIEEDELGSILKGFSSDARDLSAKETKTLMAAGDKDGDGKIGVEEFSTLVAES

Usually Tm stands for the temperature at which the thermal transition is half complete.

Variants of B1 are the subject of the series. As to conditions: Rattus norvegicus; pH 7.4; Thermal; DSC; EDTA 10 mM; NaCl 0.20 M; transition: 2; reversible: yes; structure 1RTP; whole UniProt chain shown.
With E109S, the midpoint of thermal melting (Tm) was determined as 41.8 °C, the “unfolding enthalpy (calorimetric)” value was 259 kJ/mol and the “unfolding enthalpy (van 't Hoff)” value is 264 kJ/mol.

The record behind these values is FireProtDB (doi:10.1016/s0014-5793(98)01666-4).
